Experimental findings from the DeepSol protein solubility set are described below.

This data set in a line: soluble on expression in E. coli; label from the status in PepcDB or PDB records.
Consider “MSLVKTYAFGFPKLGEKREFKRLLENYWKGKISQEELIKGMEELNLWRANLYRENVEIIPSNELSYYDFMLDTTVMVGAIPSRFGEYRGLDTYFEMARGKNALELTKWFNTNYHYLVPELEGENFKLLINRPLEDYKFFKEKGINTVPHVIGLFTFLKLSKAPKRVEEEGLPVIILEKLDTKERLEKFTKALLPVYKELLESLKNEGVNRVHFEEPALVTDLEDYDWEILNEIYSELSKVGVDLGILTYYDSVSDYDKFVNLPVKALHFDLVSNEENLKNIKEKGFPEDKELIAGIINGRQPWRANLREKVKLLEELLKVSANLVVSNSCPLYHLPVTVEPEDELPEGLKERLSFAKEKLREIRLIKEALEGKEEALREVESSEKVMTAVFAQNPEVRRRLASLSEKDFQRELPYKERDKIQRDILKLPLFPTTTIGSFPQTEDVRKMRTAYRTGKISEEEYKNFIKQKIKYAIEVQEDIGLDVLVHGEFERSDMVEYFAIKLDGIATTKHGWVLSYGSRVYRPPIIYGDVSRPAPMTLEEITYAQSLTNKPVKGMLTGPVTILNWSYYREDVPKREIAYQIALALLDEVKDLENAGIKVIQIDEPAFREGAPLKKRDWPEYFDWAVKAFRLASRAKPETQIHTHMCYSEFNEIIEYIYQMDFDVISIEASRSKGEIIEVFEKFKGWDRQIGIGVYDIHSPAIPTKEEMKAIMLRAMKVLPKELLWVNPDCGLKTRRWEEVIPALRNMVDMAKELREEVGVKVEGHHHHHH”, for which the “soluble on expression in E. coli” value is on record as “soluble”.
In the case of “KGDFVFKPYLLVQTCANFNWYDDEGLDKAYNQDNVANSGFSIPYAVLGFTGKAFGKVAFNLSINAAASGGALLQQAWFDVQLKKQFAVRVGKFKTPFSHAYLTTLGETLLPQLPVSLTSAIILPYSLNAVTPNIGTGFDLGVEIHGLLADKFGYEVGLFNGTGSSVNTATKTLSDDWHIPSLLYAGRFTYMPKGVMPSTQGNPNRLNEDKIMFGVSASINVESENESTNDTRVGVEFAMLKNKLYLGAEAYYMNVGFTDRQKINETYNYLGGYVQGGYFVAPRLQAALRYDFFNRNGTSDDGFLNMPAVGVNYFFKGCNLKLQAMYQYIARTGHDTQLDRDNDNLGLATHSATVMLQYTF” it was “not soluble”.
On to “MDSVMRKSLFLLLPLVVTNAHAVYVDVRHEYLDDSKANYDRAYISHRFANGVGFAIEAISKSGGDDTNKAFNDLETQGNEYTISYQFKTGDVAWQPGFVLETGNGYSTYKPYFRATWTLNESWWVGARYRFEYVRRSSDIRDDDTINRMDVWAGYKWNNFDWTIEGIYKKADKYDLYDGGKDNYEYNFRTAYIIDQWSPFVEVGNVSVNSNSDERQTRFRVGIGYTF”, for which the “soluble on expression in E. coli” value is listed as “not soluble”.
In the case of “MAHHHHHHMGYMQEREEMSAMVDQRTAQLEALTSSVAEAQKKLQALDERMMALEPHGNVQATAPAGATATTSKRARAGASSVGGAWDAAGVASATKMPPEELKKKVEESIEHIFHLLRTGDQQLKLTAQNPNLRKSVDGAKVAGNASHGRSRAASLHRGPKALQSSTMQTGKMKAATGGSSYDSQRPSSGAHRSGKSTVGATTAAGAADAASQQQHHDASMGPVEMLTIIENKLEEYHRYLSDPANHVELALMKAVMKQSDKQRRRQARIIHLANQEDEQEERIRRALERSQAPIIHKIGKPFRPRSFVSKPIDEKSRRKAERAAAALNGSLDNIDSDEDGAEFFM” it was “soluble”.
Regarding “MSLTDDEISSTETAPDIATQPPLFVLGVGAARLDAGRLAELLDAVAGAANLAIMLLLRDRQLLDEAHLRALLGKQATLLSVPFDGEKLQPGRFYLPPADTVVTLEEGRIRLRALPNGESDHGLIDSFFVSMAHDQDGNVIGLIMGRFDGDGTLGTAAIKECGGLALAVDDASLHGLDLRSASNPAAITDHILPLPQLTARIAAHMQRHHGFGHPGPLGVRNGSESDKLSQIAAILRNTTGHDFHGYKRATFLRRVQQRMQVAQVEMLEQYLHILRYRFDEPLQLFNDLLIGVTKFFRDRRGFELLEQQVIPRLFKGKHTDDSMRVWVLGCSTGEEAYSLAMLLREHAETLDSAPRIQIFASDIDGRALATARVGRYASSIVGEVALERLRRWFVKEGDTYVVNKELRELCVFSQHSIVKDPPFSRLDLVSCRNLLIYLDAELQNRVIPIFHFAIRPGGYLFLGNAENVSLQAQLFTPVDRSVRVFQREGHHHHHH”, the “soluble on expression in E. coli” value is on record as “not soluble”.
With “SKKQLDMSQKKTLTIDSELRFDELSLDTVRDFEKLAPFGMDNKKPVFLLKDFKVSQARVMGQNGAHLKLKLEQDGQALDLVAFNMGSQLQEFQQAQHLELAVTLSVNQWNGATTLQ”, the “soluble on expression in E. coli” value is “not soluble”.
Turning to “MPIRSNPFFNMDSSALLSLLRHTGTSMDSKSSKKSSGSIGGGVLKMFKLIPMLSSGCKMVNLLSRGHRRPLLKDYATTGTIFGFRKGRVFLAIQEDPHCLPIFIIELPMLTSALQKEMASETVRIALESETKTSRKKVLEEYVWGIYCNGRKIGYSIRRKNMSEEEMYVIDALRGVSMGAGVLPCKNQYDQETEGEMTYMRARFDRVIGSKDSEALYMINPEGSGQGTELSIYFLRSH”, the “soluble on expression in E. coli” value is recorded as “soluble”.
To “MAHHHHHHMTVARDHDIDDHDTSFTSFGGERPPFERIPVPSMASKEYTENLPAFDSDRPMPPPRSVFERFSRVMQLQFGQDPDMPLLGSRAERKYRSWLDYVTSPPSPLLPRNYVDAYTRPNPCPEEYWWASWRWPRIKYVNAKVPPPVDGKYNDYYHYLAYKNWMERERDVYVAHANLVNEMAMRCLVKEGQYNAAKNCRHLYHKGFAMSRMEELNQTLLYMALTGNAAIRETPYPENFVEEKRKIYDDWLFRTRMKKPGDVA” belongs “not soluble”; to “MEYFNVGKIVNTQGLQGEMRVLSVTDFVEERFKKGQVLALFDEKNQFVMDIEIASHRKQKNFDIIKFKGMYHINDIEKYKGFTLKVAEDQLSDLKDGEFYYHEIIGLDVYEGEELIGKIKEILQPGANDVWVVERHGKRDLLLPYIPPVVLEVDLSNQRVQVELMEGLDDEDLEHHHHHH”, “soluble”.
Consider “MGSDKIHHHHHHLSGQQDDVEDGMDQDTLTRIAEALERMAPVPQSTPDFSAASGFVWHVEPDRLEPVPEINRVELDLLVGIDRSRDTLLENTRRFAAGHAANNALLWGARGMGKSSLVKAIHGALVTDHPELKLVELQREDLPSVARLLNHLRGAPCRFILFCDDLSFSHDDQHYKSLKAVLDGGIEGRPENVVFYATSNRRHLMPRDMIENERSSAINPSEAVEEKVSLSDRFGLWLGFHPCNQDAYLAMIEGYCAAYGVTVDPERLRAEAIEWQATRGARSGRVAWQFFTDLAGREGVALR”, for which the “soluble on expression in E. coli” value is listed as “not soluble”.
In the case of “MSQEKTGLQRPVLAQLSPIAIRGHSDEGVKKLRRRNDDGCFGEALFKGNAPARSLLFGDDACHRRVENLYLLDNNPTNWSGIKTNLKREIPLLQDPTETFARMNKVMHQTLKYVKEVESINFSSRGVIDFNGEVMEDHQRIFLSVCTSVFANFSFSCQMDVEKLLSFLMALFENYSKENAYHNALHAADSVQMLFLILREKPATLIFTENEVILAFLATLSLGFVHPGVSNAFLARIDHPLVLVYGDMTTQQSAGLTALLYLLNREENRFIDLFANSGTQPFSQFLREILVETVLGTAPRLRSSLLRDLEKVAVADAVELNDIPILLAAVVILADNALALRPHAQFVNLAGLMVTEWLREAYEEEQRGMDPLVPNLRKQIYENGLGMAVDYCKVWLRPLITNIRALVPQDLYDNMEGNTEAPSMSEIQDFLVHLDSSNERWNDGSVPVIDIIRRITMHATSLDRKASKRAILNAASNRAVSGFLSRSSSMCLSPNGARMSAEVSEKKINQQPSRCEHYFSFLRLYDTYEKEGRPAAEFAAQLVFLALQLNPEYIGRYTHKGIDVCSKEECEEIAELIMKKEEAPTTAEVIASPLRDGEQTDGFILRLMEMYAERDRERERNDTLNSATNPTSNLRRTLKCYNPVYGGMYSGKKS”, the “soluble on expression in E. coli” value was “soluble”.
GSQITGTCPSGCSGDCYPECPPGCCGQVNLN: the “soluble on expression in E. coli” value is given as “soluble”.
In the case of “YDPYQHIEKATNRRNMVLNAMVETGDITKAEGDKYKATKIVLNDQSKDPLANKYPWYVDAVINEAVNEADITQDEIMQKGY” it was “not soluble”; in that of “MGSDKIHHHHHHMIQIKRGKIVGFNERVGRAFHPAQVAEPAQHAPHQRRLARTEVAFQIEGHAGRQAGRKPRAERKRGGLVGKVATRRRGIIRGMHEQDSPRDFGRLAAQIKQWGRELGFAAIGITDADLSAAEAGLHTWLDKGFHGEMDYMAAHGTKRSRPAELVPGTLRIISARLDYFPPDAVDPDTILATPDAAYVSRYALGRDYHKVLRQRLQTLAERIGAAAGEHHFRVFSDSAPVMEVELATRAGLGWRGKHTLLLNRHHGSWFFLGEIYSDLPLPVDAPEAEHCGTCHACLDACPTQAIVAPYSVDARRCISYLTIELKGSIPLELRSLIGNRIYGCDDCQLVCPWNRFAGTAAVPDFAVRNGLDSAQLVDLFAWSEADFNDRLAGSPIRRIGHERWLRNIAVALGNARPAPAIEAALGTRLDHPSAMVREHVAWALARQQER”, “not soluble”; in that of “MLRHKEPGSGSGGGVYWVDSQQKRYVPVKGDHVIGIVTAKSGDIFKVDVGGSEPASLSYLSFEGATKRNRPNVQAISSRLLEHHHHHH”, “not soluble”.
Regarding “MSDGSVERGTKRAEDSLATHQLTVQYKRYYIDVNENTRGRYIKIAELGTNYKSRIILSIVAAKAIVSEISKMLALIDEPSTGEHAPKESSLIKSETLNVDGRKFYVDLKENVRGRFLRIAQMPMNPRQTRQQIAIPSDGIAEIHKVLTEYLAKFGEGHEQENTNTPKITAENKSFLFHSGKNDRGEFVRISEIKLNSGYRNAITVPMSALVDFRKELDNIIANQGK”, the “soluble on expression in E. coli” value was “not soluble”.
For the sequence “ANGFHYTVGFNLSDYQSEVTKFDNESKELGNWYVGQKQGEIWGYETYGLFQSEQEIAGAANQDKVSGGIKLMPGDIRFVDRNNDGVIDWGDNTVDNPGDKKIIGNSTPRYHYGINLGADWKGFDLGIFFQGVGKRDLYLPGTSFRSHYGSEWQVPSAYNNDYWTEENTGAYFPRARFNGGSAINQAQTRYMVDASYCRLKSLSIGYTLPKVLTQKASIEKIRIYFTGENLFTISDTPDGLDPELDNPYTYPMQRSLSVGLSLTF”, the “soluble on expression in E. coli” value is recorded as “not soluble”.
As to “MGSDKIHHHHHHMNKKSSLNNLLYIQEHRSCRNYLEKVENGFKYIEFSHEEVILEKEISWNYLLFVLEGECIINCNQFRERLFQANCMVLLPKTAMVEIKVIAGTRLLSLSFDVPLNVCDKFILQSLTGLCRKLDYNFQSLAIRYPLPPYLEIVTYCLTNKMDCGHFHTLLQQELFFLLRGFYLKEELALLFHPIISAELTFKDFVIGNYFKVSNVNDLISLSNMCKSSFYCKFKEVFGMTAKQWLLKQRNTHILNKVMTSETTVGELMEEFRFESQAHFTHYCKQHFNCTPRELIMKYQVVNQ”, the “soluble on expression in E. coli” value is recorded as “not soluble”.
With “MAHHHHHHMAPQSPSEWDNARRAAKRALTISDEYPPATVERIQKLLQRAETTSNDAVLLSELKSLVQSYFQSPQSLQFLRKERVASKGGGIGVVAARKIPAFSIIGVYPGYLDFMSGEQAKCGRPVPKYALMEYNCANYFNEVFVELQTTFTPFINEPNVDEKSNCAWIQEPHRKNGRLSVICVRDIQEGEELTIGYGPIYPRTYPYCYDAYACHQIEGHTTHPCYSLWHWPTLQEADARFVCHIGYIERDDCYVLWKNET”, the “soluble on expression in E. coli” value is reported as “not soluble”.
Take “MGSDKIHHHHHHMSKKFNCSIKRIRFDENYRPADSTRLTTNFANLARGEHREENLRKTLRMINNRFNALAHWDNPTADRYSVEVDIISIDMDVAGNGHTFPVIETLKTTIVDHKENTRIDGMMGNSFSSYVRDYDFSVVLPEHFNNHSTSPVSAPPEDFGDLHGKLFQYLLNSEAYKAQFNNKLVICLSVSTSKTYHRTTNQHPVLGVEYKQDDYSLTDDYFHKMGLTVRYFMPANSAAPLAFYFAGDLLTDYTDLELISAISTMETFQKIYRPEIYNANATAGEVYQPSLKYQDYSLTQIVYDRAERSQMAVKQGKFTEEQFIKPYQAILEEWAASYDVASKKNLHQ”: the “soluble on expression in E. coli” value was “not soluble”.
